Molecular target: Mouse CLIC6 CLIC domain (residues 363-597) (mouse) (UniProt Q8BHB9)
Test: SEC; analytical gel filtration after 10 minutes with 0 to 2 mM H2O2; running buffer without reducing or oxidative agents

stoichiometry N: 2
Substance: Mouse CLIC6 CLIC domain (residues 363-597) (from UniProt Q8BHB9 363-596) (domain or fragment)

Source: article PMC5931990
